The values below come from patent US20090047282.

Series [1] relates to human Shh-N (cysteine residue at the 24th position up to the glycine residue at the 197th position of human Shh), E. coli recombinant, histidine tag excised with enterokinase.
Series [2] concerns Shh-(24-45), 22-mer peptide of amino acids 24 to 45 of human Shh, biotin at the C-terminal lysine.
Sequence of Shh-(24-45), 22-mer peptide of amino acids 24 to 45 of human Shh, biotin at the C-terminal lysine (chain, as listed by the source): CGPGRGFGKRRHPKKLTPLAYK

In the case of “human HHAT (human hedgehog acyltransferase) with a C-terminal FLAG-Tag, crude enzyme solution from transfected HEK293 cells”, the “radioactivity of [14C] palmitic acid in the band of Shh-N after SDS-PAGE (HHAT activity)” value in series [1] was “Only when the human HHAT crude enzyme solution and the Shh-N were reacted, a band having a radioactivity was recognized in the vicinity of the molecular weight of 21 kDa corresponding to the Shh-N”. On to “human HHAT expressed with the Bac-to-Bac baculovirus system (HHAT enzyme solution of Example 5)”, for which, in series [2], the “radioactivity of [3H] palmitic acid added to the substrate peptide against the peptide's concentration (reaction time 1 hour)” value is “the activity was increased depending on the concentration (FIG. 3)” and the “radioactivity of [3H] palmitic acid added to the substrate peptide against the reaction time (10 uM peptide)” value is “the activity was increased for 2 hours (FIG. 4)”.
